Target: human plasminogen (human, UniProt P00747 20-810)
Assay: SPR

human plasminogen, sequence (P00747 20-810): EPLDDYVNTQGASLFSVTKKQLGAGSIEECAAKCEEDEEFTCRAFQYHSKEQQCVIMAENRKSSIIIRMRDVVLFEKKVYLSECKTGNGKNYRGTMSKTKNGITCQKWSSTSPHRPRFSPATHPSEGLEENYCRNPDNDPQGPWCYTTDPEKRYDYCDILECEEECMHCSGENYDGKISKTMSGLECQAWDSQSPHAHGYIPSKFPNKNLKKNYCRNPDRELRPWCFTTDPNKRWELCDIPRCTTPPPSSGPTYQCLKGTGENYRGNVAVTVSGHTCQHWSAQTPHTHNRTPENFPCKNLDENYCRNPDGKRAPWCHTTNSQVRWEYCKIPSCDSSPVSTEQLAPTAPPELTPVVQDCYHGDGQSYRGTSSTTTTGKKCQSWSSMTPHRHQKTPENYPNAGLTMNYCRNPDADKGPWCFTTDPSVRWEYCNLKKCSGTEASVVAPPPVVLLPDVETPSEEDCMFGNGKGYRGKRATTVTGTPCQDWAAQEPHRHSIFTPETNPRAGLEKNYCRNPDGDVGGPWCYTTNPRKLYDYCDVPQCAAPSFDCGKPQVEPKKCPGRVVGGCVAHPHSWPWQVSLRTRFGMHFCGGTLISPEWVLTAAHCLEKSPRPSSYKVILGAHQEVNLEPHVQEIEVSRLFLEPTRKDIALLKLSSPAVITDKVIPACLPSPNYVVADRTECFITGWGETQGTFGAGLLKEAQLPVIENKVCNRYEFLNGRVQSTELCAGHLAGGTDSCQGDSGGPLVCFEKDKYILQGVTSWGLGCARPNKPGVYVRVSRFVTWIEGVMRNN

B1: recombinant FabG (3-ketoacyl-ACP reductase) of Streptococcus suis serotype 2 strain ZY05719 (natural protein, UniProt A0A0H3MXL9 1-244, looked up)
chain: MELTNKNVFVTGSSRGIGLAIAHKFASLGANVVLNGRGQLGQDLLDSFADYGVKVLAISGDISSAQDAKRMVAEAIETLGSVDILVNNAGITKDGMALRMTEEDFDTVLKVNLTGTFNMTQAVLKPMTKAREGAIINLSSVSGLIGNAGQANYSASKAGVIGFTKAIAREVAGRNVRVNAIAPGFIQSDMTDVLSDKIKEAMTAQIPMKRFGATEEVADVAVFLAKQEYLTGQVIAVDGGLTMQ
  Kd: 1.72 nM

Source: article PMC12232145 (BMC Microbiology, 2025)
